The results in this text go back to PMC3467058 (Nucleic Acids Research, 2012).

The target in this experiment is T1, Aeropyrum pernix aEF1α (residues 7-437), C-terminally His-tagged, wild type (Aeropyrum pernix, UniProt Q9YAV0 7-437).
T1 sequence: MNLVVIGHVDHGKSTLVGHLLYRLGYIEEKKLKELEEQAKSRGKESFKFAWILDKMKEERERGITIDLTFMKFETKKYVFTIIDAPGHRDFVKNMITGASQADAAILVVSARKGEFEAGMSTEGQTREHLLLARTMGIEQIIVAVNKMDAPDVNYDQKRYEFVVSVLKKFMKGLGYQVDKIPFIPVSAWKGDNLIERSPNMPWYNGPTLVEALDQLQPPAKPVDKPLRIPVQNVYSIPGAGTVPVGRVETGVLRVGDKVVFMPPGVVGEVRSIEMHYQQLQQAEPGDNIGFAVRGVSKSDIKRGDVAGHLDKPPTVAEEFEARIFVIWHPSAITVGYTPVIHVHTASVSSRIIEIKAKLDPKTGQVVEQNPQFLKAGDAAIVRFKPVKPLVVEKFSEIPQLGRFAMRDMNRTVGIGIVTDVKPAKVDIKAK
The experiment is described as follows: pull-down.

B1: archaeal RF1 (aRF1), archaeal class I release factor, Aeropyrum pernix (natural protein)
chain: MSQGRLEERLTISKRELARLLKELKKWSAPATVLLSLYIPPGRPLSDVMTLLRQEYSITDNIKLKRTRQAVKRALSAAMDRLQMLTSTPPNGLVLFCGEDMSTGKFECFMFSPPEPIRVFYYRTDKRFITDFLEDMVEDNNAIGIIIVERDQATIGLLKGARLEVLKELEGFVPGKHKMGGQSQRRYERIIEQMVDEFFKKVGEEASNLLVPLAEKGVLKGVIVAGPGLAKQEFVEGNYLDYRLKKILAPELVDVAYQGLQGLKEAVMKAEKVVEAQMYRDAVNAMEEFKLHLAKGTGMIVYGEKDVEAALEMGAVKTLLIHESREDLEEWVEKAKSSGAQVIVVPESLAEAEWFLKTFGGLAGILRFRISTV
Regarding B1, the binding result is recorded as “binds”.
